Source: the supplement of paper PMC7877785
± gives the uncertainty stated by the source.

Assay: self-splicing fitness, log relative to wild type (ln ratio); higher = more splicing; Tetrahymena group I intron in knt gene, E. coli kanamycin selection, DiMSum; sequences stand for … in CUCUCU…GGAGGGAAAAGUUAUCAGGCAUGCACCUGGUAGCUAGUCUUUAAACCAAUAGAUUGCAUCGGUUUAAAAGGCAAGACCGUCAAAUUGCGGGAAAGGGGUCAACAGCCGUUCAGUACCAAGUCUCAGGGGAAACUUUGAGAUGGCCUUGCAAAGGGUAUGGUAAUAAGCUGACGGACAUGGUCCUAACCACGCAGCCAAGUCCUAAGUCAACAGAUCUUCUGUUGAUAUGGAUGCAGUUCACAGACUAAAUGUCGGUCGGGGAAGAUGUAUUCUUCUCAUAAGAUAUAGUCGGACCUCUCCUUAAUGGGAGCUAGCGGAUGAAGUGAUGCAACACUGGAGCCGCUGGGAACUAAUUUGUAUGCGAAAGUAUAUUGAUUAGUUUUGGAGUACUCGUGGUCG
Outline: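 Colonies from six replicate transformations of E. coli BL21(DE3) were pooled and amplicon-sequenced on an Illumina HiSeq 2500. The library placed an intron with all eight P1ex-region nucleotides randomised inside the knt kanamycin-resistance gene on pET-22b(+), and cells grew overnight at 37°C or 30°C on LB agar with or without 25 μg/mL kanamycin (plus 100 μg/mL carbenicillin, 50 μM IPTG, 0.2% rhamnose). Fitness is the DiMSum error-weighted combination of wild-type-normalised replicate fold changes, kanamycin versus none.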

Sequence | self-splicing fitness (ln) (30 °C) | self-splicing fitness (ln) (37 °C)
AUACAGCAAUAUUACGACCG | -1.22 ± 0.096 | -0.49 ± 0.1
CGAUAGCAAUAUUACGCCCA | -1.46 ± 0.28 | 0.585 ± 0.16
UCCUAGCAAUAUUACGUGCC | -2.26 ± 0.33 | -2.02 ± 0.39
ACGAAGCAAUAUUACGGACA | -0.643 ± 0.14 | -0.915 ± 0.15
CGUCAGCAAUAUUACGAUAA | -1.1 ± 0.14 | 0.157 ± 0.12
AGGCAGCAAUAUUACGGUCA | -0.0713 ± 0.069 | -0.148 ± 0.079
GACUAGCAAUAUUACGUGUC | -2.59 ± 0.42 | –
AAAAAGCAAUAUUACGCUUC | -3.38 ± 0.3 | –
AGAUAGCAAUAUUACGUCAG | -2.66 ± 0.15 | -1.01 ± 0.13
CAGUAGCAAUAUUACGCUGG | -2.5 ± 0.17 | -1.34 ± 0.19
CACGAGCAAUAUUACGCCGU | -3 ± 0.21 | -2.26 ± 0.18
GAUCAGCAAUAUUACGUGCG | -1.16 ± 0.086 | -0.336 ± 0.093
UCUUAGCAAUAUUACGAGUU | -2.85 ± 0.16 | -0.665 ± 0.15
GACAAGCAAUAUUACGCUCC | -3.8 ± 0.24 | -2.56 ± 0.27
UACAAGCAAUAUUACGCCCU | -0.317 ± 0.085 | -0.111 ± 0.12
GCUCAGCAAUAUUACGCCCC | 0.441 ± 0.32 | -0.222 ± 0.41
CACCAGCAAUAUUACGUGGA | -3.55 ± 0.12 | -2.12 ± 0.09
CUGUAGCAAUAUUACGAAAU | -3.22 ± 0.23 | -2.54 ± 0.26
CUAGAGCAAUAUUACGGCUG | 0.203 ± 0.11 | -0.255 ± 0.14
AUAAAGCAAUAUUACGUUUC | -3.83 ± 0.23 | -2.64 ± 0.33
UUAUAGCAAUAUUACGGCGG | -0.333 ± 0.16 | 0.825 ± 0.2
GGGCAGCAAUAUUACGGUGG | -3.42 ± 0.17 | -1.86 ± 0.16
GCCAAGCAAUAUUACGAUUG | -4.04 ± 0.4 | -2.12 ± 0.34
GACAAGCAAUAUUACGACUC | 0.206 ± 0.1 | 0.387 ± 0.12
UAGGAGCAAUAUUACGAUAC | -4.56 ± 0.32 | -1.86 ± 0.28
AGGCAGCAAUAUUACGAGGG | -2.52 ± 0.11 | -2.83 ± 0.23

Sequence | self-splicing fitness (ln) (30 °C) | self-splicing fitness (ln) (37 °C)
UGGGAGCAAUAUUACGCGGA | – | -2.73 ± 0.34
GCUCAGCAAUAUUACGCGCU | -1.42 ± 0.11 | -0.545 ± 0.14
GGCGAGCAAUAUUACGAAUU | -1.66 ± 0.14 | -0.459 ± 0.17
AUAUAGCAAUAUUACGCCGU | -0.99 ± 0.24 | -0.413 ± 0.19
CACGAGCAAUAUUACGAUCG | -1.14 ± 0.077 | -0.291 ± 0.083
AGUCAGCAAUAUUACGUCGA | -0.487 ± 0.1 | -0.568 ± 0.13
AUUAAGCAAUAUUACGCCCA | -1.11 ± 0.19 | -0.42 ± 0.29
GGCCAGCAAUAUUACGCAUC | -0.0388 ± 0.15 | 0.0683 ± 0.16
UGCAAGCAAUAUUACGACCA | -0.338 ± 0.37 | -0.273 ± 0.3
UGGCAGCAAUAUUACGCAAA | -1.87 ± 0.23 | -0.513 ± 0.26
CACAAGCAAUAUUACGGCUG | -1.54 ± 0.072 | -0.213 ± 0.087
GCUCAGCAAUAUUACGUCAU | -2.27 ± 0.06 | -1.26 ± 0.074
GGACAGCAAUAUUACGGACG | -0.636 ± 0.12 | -0.327 ± 0.12
CUCGAGCAAUAUUACGCAAG | -3.95 ± 0.43 | -1.35 ± 0.3
UACAAGCAAUAUUACGUAUG | -3.68 ± 0.17 | -2.11 ± 0.14
GCUUAGCAAUAUUACGGUAC | -1.91 ± 0.14 | -0.938 ± 0.19
GCAAAGCAAUAUUACGCAAC | -3.02 ± 0.15 | -1.23 ± 0.12
CGGCAGCAAUAUUACGAUGG | -0.549 ± 0.083 | -0.741 ± 0.093
GGCGAGCAAUAUUACGAGGU | -3.57 ± 0.36 | -0.907 ± 0.22
GACUAGCAAUAUUACGUUAC | -2.46 ± 0.19 | -1.84 ± 0.22
GCAAAGCAAUAUUACGAACA | -1.89 ± 0.14 | -1.73 ± 0.12
GUUGAGCAAUAUUACGCAGU | – | -1.25 ± 0.4
AGACAGCAAUAUUACGUGCC | -0.679 ± 0.12 | -0.815 ± 0.17
CUUCAGCAAUAUUACGCUAG | -3.22 ± 0.26 | -1.34 ± 0.19
CGCUAGCAAUAUUACGGUUG | -2.07 ± 0.055 | -0.803 ± 0.072
AUCCAGCAAUAUUACGUAUU | -1.84 ± 0.078 | -1.23 ± 0.093

Sequence | self-splicing fitness (ln) (30 °C) | self-splicing fitness (ln) (37 °C)
AGAGAGCAAUAUUACGAGCG | -2.63 ± 0.3 | –
UUGAAGCAAUAUUACGCCUG | 0.189 ± 0.11 | 0.0665 ± 0.12
UAAAAGCAAUAUUACGUCGC | -3.18 ± 0.24 | -2.44 ± 0.36
GUAAAGCAAUAUUACGGAAA | -2.68 ± 0.14 | -1.38 ± 0.18
AAAUAGCAAUAUUACGCCAG | -2.53 ± 0.24 | -2.09 ± 0.42
GGCGAGCAAUAUUACGGCUU | -0.682 ± 0.2 | -0.0819 ± 0.35
CAAUAGCAAUAUUACGAGAG | -3.64 ± 0.23 | -1.52 ± 0.12
CUCUAGCAAUAUUACGUUGA | -2.49 ± 0.27 | -3.81 ± 0.36
AUGAAGCAAUAUUACGAAUA | -1.17 ± 0.11 | -0.537 ± 0.17
AUCUAGCAAUAUUACGUAGU | -1.83 ± 0.096 | -0.758 ± 0.11
UGUGAGCAAUAUUACGUUUG | -2.21 ± 0.14 | -2.76 ± 0.26
UACGAGCAAUAUUACGCGGC | -3.65 ± 0.37 | -2.28 ± 0.28
GAGGAGCAAUAUUACGUAUC | -4.63 ± 0.42 | -2.74 ± 0.33
GGUAAGCAAUAUUACGUACG | -0.395 ± 0.11 | -0.415 ± 0.12
CACAAGCAAUAUUACGCGCC | -3.41 ± 0.26 | -1.32 ± 0.16
UGUAAGCAAUAUUACGCCGU | -2.48 ± 0.26 | -3.08 ± 0.47
UAAUAGCAAUAUUACGAUGA | -2.56 ± 0.19 | -1.48 ± 0.16
AUAGAGCAAUAUUACGAAUC | -3.82 ± 0.25 | -2.63 ± 0.3
AACGAGCAAUAUUACGAUGU | -2.35 ± 0.2 | -1.99 ± 0.17
AAUGAGCAAUAUUACGGAAU | -4.25 ± 0.37 | -2.34 ± 0.32
CGACAGCAAUAUUACGGCUC | -2.5 ± 0.11 | -1.89 ± 0.14
UCCUAGCAAUAUUACGUCUG | -4.52 ± 0.41 | -3.05 ± 0.21
UUGAAGCAAUAUUACGGAAG | -1.12 ± 0.14 | -0.383 ± 0.2
AUGCAGCAAUAUUACGUAAC | -2.78 ± 0.2 | -0.366 ± 0.15
GGCAAGCAAUAUUACGCUAG | -3.39 ± 0.24 | -2.83 ± 0.37
